# Read-outs that look alike come from different tables or passages of the source.
# B1: gelonin: a type 1 ribosome-inhibiting protein (protein)
# chain: GLDTVSFSTKGATYITYVNFLNELRVKLKPEGNSHGIPLLRKKCDDPGKCFVLVALSNDNGQLAEIAIDVTSVYVVGYQVRNRSYFFKDAPDAAYEGLFKNTIKTRLHFGGSYPSLEGEKAYRETTDLGIEPLRIGIKKLDENAIDNYKPTEIASSLLVVIQMVSEAARFTFIENQIRNNFQQRIRPANNTISLENKWGKLSFQIRTSGANGMFSEAVELERANGKKYYVTAVDQVKPKIALLKFVDKDPK
# B2: bryodin 1: type I ribosome-inactivating protein from the root of Bryonia dioica; 29 kDa band identical to the bryodin described by Stirpe (protein)
# chain: DVSFRLSGATTTSYGVFIKNLREALPYERKVYNIPLLRSSISGSGRYTLLHLTNYADETISVAVDVTNVYIMGYLAGDVSYFFNEASATEAAKFVFKDAKKKVTLPYSGNYERLQTAAGKIRENIPLGLPALDSAITTLYYYTASSAASALLVLIQSTAESARYKFIEQQIGKRVDKTFLPSLATISLENNWSALSKQIQIASTNNGQFESPVVLIDGNNQRVSITNASARVVTSNIALLLNRNNIA
# B3: bryodin 2: novel type I ribosome-inactivating protein of about 27,000 daltons isolated from the roots of Bryonia dioica (SEQ ID NO: 15) (protein)
# chain: MRSIGFYSVLALYVGAHVTEDVDINFSLIGATGATYKTFIRNLRTKLTVGTPRVYDIPVLRNAAAGLARFQLVTLTNYNGESVTVALDVVNVYVVAYRAGNTAYFLADASTEANNVLFAGINHVRLPYGGNYDGLETAAGRISRENIELGFSEISSAIGNMFRHNPGTSVPRAFIVIIQTVSEAARFKYIEQRVSENVGTKFKPDPAFLSLQNAWGSLSEQIQIAQTRGGEFARPVELRTVSNTPTFVTNVNSPVVKGIALLLYFRVNVGTDNVFAMSLSTY
# Legend:
# [1] = test system: protein synthesis in rabbit reticulocyte lysate
# [2] = test system: protein synthesis in rabbit reticulocyte lysate with wheat germ ribosomes; settings: cited from earlier work
# mice [3] = settings: intraperitoneal, literature; cited from earlier work
# [4] = test system: H3396 cell membranes (BR96 antigen); type: binding, human; settings: FIG. 10; ELISA, 10 μg/ml H3396 membranes
# mice [5] = settings: for % Survival / LD50: mice; for % Survival: >14 days; for LD50: single dose
# liver = settings: for liver lesions: histochemical analysis
molecule,measurement,setting,value
B1,EC50,[1],0.049 nM
B2,"ID50, inhibition of protein synthesis",[2],3.6 ng/mL
same,LD50,mice [3],14.5 mg/kg
same,binding to H3396 membranes,[4],no detectable binding
same,% Survival,"mice [5]; i.p., 10 mg/kg",100%
same,% Survival,"mice [5]; i.p., 12 mg/kg",100%
same,% Survival,"mice [5]; i.p., 14 mg/kg",100%
same,% Survival,"mice [5]; i.p., 16 mg/kg",100%
same,% Survival,"mice [5]; i.v., 12 mg/kg",100%
same,% Survival,"mice [5]; i.v., 16 mg/kg",100%
same,% Survival,"mice [5]; i.v., 18 mg/kg",100%
same,% Survival,"mice [5]; i.v., 20 mg/kg",100%
B3,EC50,[1],0.017 nM
same,liver protein in blood chemistry screen,"liver; blood chemistry, data not shown",increased liver protein
same,liver lesions,liver,showed liver lesions
same,liver lesions,liver; listed as BD2,presence of liver lesions
same,SGOT,liver; injected mice,elevated
same,SGPT,liver; injected mice,elevated
same,cause of death at lethal dose,liver; necropsy,liver toxicity was the cause of death
same,binding to H3396 membranes,[4],no detectable binding
same,toxicity to mice relative to bryodin 1,mice [5]; i.p. and i.v.,slightly more toxic to mice than bryodin 1
same,% Survival,"mice [5]; i.p., 7 mg/kg",100%
same,% Survival,"mice [5]; i.p., 8 mg/kg",50%
same,% Survival,"mice [5]; i.p., 10 mg/kg",0%
same,% Survival,"mice [5]; i.p., 12 mg/kg",0%
same,% Survival,"mice [5]; i.v., 5 mg/kg",100%
same,% Survival,"mice [5]; i.v., 6 mg/kg",100%
same,% Survival,"mice [5]; i.v., 7 mg/kg",100%
same,% Survival,"mice [5]; i.v., 8 mg/kg",75%
same,% Survival,"mice [5]; i.v., 10 mg/kg",75%
same,% Survival,"mice [5]; i.v., 12 mg/kg",0%
same,% Survival,"mice [5]; i.v., 14 mg/kg",0%
same,LD50,mice [5]; intraperitoneal,8 mg/kg
same,LD50,"mice [5]; intraperitoneal, listed as BD2",about 8 mg/kg
same,LD50,mice [5]; intravenous,greater than 10 mg/kg

# Reference: patent US5597569A (priority 1994, dated 1997)
